Assay results taken from the supplement of paper PMC10567573.
± gives the standard deviation.

Assay: protein stability index of a GFP-peptide fusion (GPS, HEK-293T) (PSI 1-6); higher = more stable
[1] = treatment: DMSO, c terminus: native
[2] = treatment: MLN4924 1 uM, 8 h, c terminus: native
[3] = treatment: DMSO, c terminus: a fixed tail appended
[4] = treatment: MLN4924 1 uM, 8 h, c terminus: a fixed tail appended
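Further: 24-mer peptide tiles fused after GFP, lentivirally expressed, FACS-sorted into six equal bins by GFP/DsRed ratio, decoded by Illumina sequencing, PSI is the read-weighted mean bin number.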

| Sequence | protein stability index [1] | protein stability index [2] | protein stability index [3] | protein stability index [4] |
| --- | --- | --- | --- | --- |
| MNYRRLGGGVGVIKMTHCESHIW [KLHL20] | 2.75 ± 0.32 | 2.34 ± 0.31 |  |  |
| IHSPAHPEIEKADDHLQQPLQNQK [ZNF649] |  |  | 5.39 ± 0.16 | 5.35 ± 0.37 |
| CPIDQHHRNQCQYCRLKKCLKVGM [NR2F2] |  |  | 2.97 ± 0.038 | 3.36 ± 0.36 |
| RLWSHRSYKARLPLRLFLIIANTM [SCD] |  |  | 2.29 ± 0.54 | 2.13 ± 0.23 |
| LPSWAELLRPKYRAPQGCSGVDEC [PBXIP1] |  |  | 2.83 ± 0.11 | 2.69 ± 0.46 |
| NHEALRQAKQEMNESRRQIQSLTC [PRPH] |  |  | 4.47 ± 0.18 | 4.38 ± 0.15 |
| LLDDGQQASPYHPGSCGAGAPSPG [ELF3] |  |  | 4.71 ± 0.1 | 4.57 ± 0.39 |
| VRLQSIHTMRKISNNITLREDQLD [INTS4] |  |  | 3.2 ± 0.055 | 3.3 ± 0.36 |
| AQPPDYTFPSGSGAHFPQVPGGAV [PI4K2A] |  |  | 3.93 ± 0.19 | 4.01 ± 0.12 |
| ICAIEYLHSKEIVYRDLKPENILL [PRKX] |  |  | 2.61 ± 0.39 | 2.96 ± 0.94 |
| SGLFNHRGIHNIQKRYHCKECGKV [ZSCAN9] |  |  | 3.08 ± 0.41 | 3.13 ± 0.35 |
| PPSYGGSSRYDDYSSSRDGYGGSR [RBMX] |  |  | 4.612 ± 0.036 | 4.66 ± 0.33 |
| QHNLRDSLENTLTESEAHYSSQLS [KRT34] |  |  | 5.066 ± 0.033 | 4.99 ± 0.23 |
| LNRPGPAPLSSRKHVLYVEHRHLN [TCF25] |  |  | 3.14 ± 0.28 | 2.8 ± 0.15 |
| TASTKNCMVGYDMGATRCDFTLSK [CPXM2] |  |  | 2.64 ± 0.4 | 3.03 ± 0.51 |
| ASHCLMNHPDLAKDLTEYLKVRSH [PDS5B] |  |  | 3.05 ± 0.27 | 3.01 ± 0.18 |
| LMSGALAVNQKIDRESLCGASTSC [PCDHGC5] |  |  | 3.67 ± 0.4 | 3.6 ± 0.095 |
| SDQDPRVRTAAIKAMLQLHERGLK [INTS4] |  |  | 3.67 ± 0.31 | 3.79 ± 0.39 |
| SESGKLVTKMFQKIQDLIDDKDAL [TRIP13] |  |  | 3.43 ± 0.17 | 3.42 ± 0.2 |
| QPVSLRRRKREVLVEDMVSQEEAQ [ZNF24] |  |  | 5.07 ± 0.25 | 5.34 ± 0.33 |
| TAILIECGADVNVRDSDDNSPLHI [FEM1C] |  |  | 3.43 ± 0.34 | 3.5 ± 0.3 |
| TKPTQGASSASEPQGLFVEALSVP [CLPTM1] |  |  | 4.13 ± 0.097 | 4.29 ± 0.19 |
| TSSSDDDEEVSGSSKTITAEIPDG [C18orf25] |  |  | 5.59 ± 0.19 | 5.49 ± 0.23 |

| Sequence | protein stability index [1] | protein stability index [2] | protein stability index [3] | protein stability index [4] |
| --- | --- | --- | --- | --- |
| NHLPPQTKRSSRNPVFQDSWDTES [FAM104A] |  |  | 4.48 ± 0.29 | 4.59 ± 0.46 |
| KMAAVSKASGRFGLLQGTSAETSG [SEPHS2] |  |  | 3.94 ± 0.15 | 3.88 ± 0.25 |
| IAQDTCTTTDHSSNPGPVPGSSSG [SPAG8] |  |  | 5.23 ± 0.44 | 5.26 ± 0.23 |
| VRSIQPEEKERIGQFVFARDAKAA [AASDHPPT] |  |  | 4.13 ± 0.31 | 4.39 ± 0.27 |
| VGERLQDTHSWKSELQREMEALAA [TEKT4] |  |  | 3.9 ± 0.62 | 3.92 ± 0.56 |
| TSYKVMVSNDSHTWVTVKNGSGDM [CPXM2] |  |  | 2.8 ± 0.38 | 2.94 ± 0.27 |
| SVVRDLKGYPDGVKSIVVKGYNIW [TLE6] |  |  | 2.26 ± 0.26 | 2.23 ± 0.21 |
| FVVMGVIGGLLGATFNCLNKRLAK [CLCN6] |  |  | 2.55 ± 0.39 | 2.7 ± 0.59 |
| DPQLEIAYRGNCKDVSRCVAERKY [SMOC2] |  |  | 4.04 ± 0.32 | 4.12 ± 0.11 |
| ADQRSRMLSIFYFAIPVGSGLGYI [SPNS1] |  |  | 2.44 ± 0.52 | 2.26 ± 0.31 |
| CSISKMEEEAGQTSIEPSKSSIIP [ZER1] |  |  | 4.59 ± 0.28 | 4.53 ± 0.2 |
| MEQFCWPHLRSFCETCVGSWSIQM |  |  | 2.82 ± 0.44 | 2.49 ± 0.73 |
| SGPRQLLTLYNPTGTALRFRVLCT [MOSPD3] |  |  | 2.15 ± 0.48 | 2.16 ± 0.27 |
| EMEKSFREEEKTFWKKYRTFWKED [CCDC70] |  |  | 3.77 ± 0.31 | 3.67 ± 0.35 |
| GQVLHFENVKDVPFGFQTVTSDVN [SERPINB5] |  |  | 3.85 ± 0.36 | 3.84 ± 0.42 |
| FYAITTLHNLLLHQEGAKMAVRLA [CTNNB1] |  |  | 3.02 ± 0.17 | 2.79 ± 0.15 |
| QLLILLQNCTDEGEREAIQKSVTR [POP5] |  |  | 3.91 ± 0.26 | 4.12 ± 0.27 |
| PHRMDRRLLALIYLAHASDVLENA [GOLPH3] |  |  | 2.55 ± 0.27 | 2.34 ± 0.21 |
| PPNADLEQGFQEGVPNASVIMQVP [MFF] |  |  | 4.83 ± 0.18 | 4.72 ± 0.33 |
| TMLATRNFSAAKSLLNKKADGVKP [CAMK2B] |  |  | 3.73 ± 0.34 | 4.02 ± 0.32 |
| NNSIKDLTDGHFENILADNSVNDQ [SERPINB5] |  |  | 5.32 ± 0.12 | 5.26 ± 0.25 |
| FCREEMGEVLKSSTFSSGPSDKMK [SPOPL] |  |  | 3.53 ± 0.41 | 3.69 ± 0.23 |
| EERERIERVRRIHIKRPDDRAHLH [KCTD10] |  |  | 4.43 ± 0.18 | 4.54 ± 0.23 |

| Sequence | protein stability index [1] | protein stability index [2] | protein stability index [3] | protein stability index [4] |
| --- | --- | --- | --- | --- |
| HGQEGSILVTKVEEPSKYGVVVCE [GMPPB] |  |  | 3.9 ± 0.13 | 3.94 ± 0.25 |
| GRLLLTLPLLRQTAGKVLAHFYGV [ESRRA] |  |  | 2.78 ± 0.54 | 3.05 ± 0.88 |
| DLRGVCVSGKCEPIGCDGVLFSTH [ADAMTSL2] |  |  | 2.4 ± 0.091 | 2.75 ± 0.59 |
| KETVNVKTVCGYYTSAGTYGLDSV [GMCL1] |  |  | 2.48 ± 0.29 | 2.68 ± 0.3 |
| AFSSRLGGSRGAPGLLMAVGQDLY [DCAF4] |  |  | 2.19 ± 0.48 | 2.15 ± 0.38 |
| ANDYKDTLGKGSSLSAPSKKTSR [KRT71] | 5.26 ± 0.32 | 5.12 ± 0.47 |  |  |
| LTLCKSDLESQVESLREELICLKK [KRT34] |  |  | 2.89 ± 0.87 | 2.65 ± 0.27 |
| SRSRSRSRSRSRSRSNSRSRSYSP [SRSF1] |  |  | 5.52 ± 0.33 | 5.56 ± 0.28 |
| AYFAGNQKQLEQTLQQFNIKLRPP [ARFIP2] |  |  | 2.63 ± 0.16 | 2.76 ± 0.29 |
| NFGEFKCSDSDKKCHLWTAMDLGF [CLCN6] |  |  | 2.19 ± 0.32 | 2.34 ± 0.46 |
| KEGEGEVGGEAVEVEEVENVQTEF [TRIM55] |  |  | 5.716 ± 0.023 | 5.59 ± 0.37 |
| NEEETPSCMASLWTAPLVMRTTNL [CDC25A] |  |  | 3.22 ± 0.18 | 3.3 ± 0.11 |
| PGPGIGGDAHFDEDERWTNNFREY [MMP1] |  |  | 4.14 ± 0.39 | 4.2 ± 0.35 |
| MQVNPISKRMGPMTVVRMDASVQP [RHOBTB1] |  |  | 3.48 ± 0.19 | 3.43 ± 0.2 |
| TPPHLTSAMAENILAAACESETRK [NOL4L] |  |  | 4.16 ± 0.47 | 4.35 ± 0.2 |
| LICKYDFIMLSCVQLQRIPLSAVY [TPRG1] |  |  | 3.2 ± 0.37 | 3.36 ± 0.83 |
| HILASAPTDRNLCHFQALGCRTTH [PYCR3] |  |  | 2.19 ± 0.45 | 2.23 ± 0.15 |
| MYTPAYGDFDFDEVKFPNASDMFR [MYORG] |  |  | 3.1 ± 0.3 | 3.16 ± 0.26 |
| LQLSEFLCEEFRNRNQRIVQLIQD [CPN1] |  |  | 2.56 ± 0.25 | 2.71 ± 0.39 |
| STVKNEFSLKTFKRKSEVERAVKR [MATN2] |  |  | 4.17 ± 0.14 | 4.39 ± 0.3 |
| MATLNRTAAGLMHTFNAHAATDIT [SEPHS2] |  |  | 2.95 ± 0.053 | 3.01 ± 0.19 |
| RFLGEGHHRVQENQMDKARRHPQG [CHGB] |  |  | 4.5 ± 0.44 | 4.62 ± 0.38 |
| VGDILWEHLEILQKEDVKPYQVNG [ETS1] |  |  | 3.1 ± 0.27 | 3.05 ± 0.33 |

| Sequence | protein stability index [1] | protein stability index [2] | protein stability index [3] | protein stability index [4] |
| --- | --- | --- | --- | --- |
| QYEGHVNEYAYLPLHVHEEEGILV [DCAF4] |  |  | 3.19 ± 0.13 | 3.17 ± 0.27 |
| DVTCFLLPHPGLQVATSPDFDGKL [ATL3] |  |  | 2.58 ± 0.27 | 2.69 ± 0.35 |
| DVEGAESQLDEDEHGLHTKYIHRM [TRAF3IP2] |  |  | 5.09 ± 0.23 | 5.13 ± 0.11 |
| TNDSLSLKPSWFDFGFAILGFAYA [MIA2] |  |  | 2.99 ± 0.53 | 2.49 ± 0.4 |
| KRFASLSRFVETLVVADDKMAAFH [ADAMTS4] |  |  | 2.25 ± 0.52 | 2.06 ± 0.58 |
| IQEQPGQEQVAGGEAQPGLPQEDP [FEM1A] |  |  | 5.58 ± 0.16 | 5.57 ± 0.16 |
| LRGGRGGSGGTRGPPSRGGHMDDG [RBMX] |  |  | 5.26 ± 0.19 | 5.3 ± 0.34 |
| KKKRPPQPPEESQPPQSQAQVPPA [PLK2] |  |  | 5.35 ± 0.23 | 5.46 ± 0.14 |
| FSRAPVSALPLAPNHLGGGAVVLG [STX5] |  |  | 2.81 ± 0.11 | 2.98 ± 0.17 |
| QAGSSQGLSLCQFQNFSLHDPLYG [LPCAT4] |  |  | 3 ± 0.41 | 2.98 ± 0.31 |
| ESQKKKQQDDSDEYDDDDSAASTS [ZNF207] |  |  | 5.7 ± 0.1 | 5.53 ± 0.18 |
| LDEGMQIPSTQFDAAHPTNVQRLA [CTNNB1] |  |  | 4.73 ± 0.12 | 4.7 ± 0.2 |
| DDLQQLQLFTEYGRLAMDEIFQKP [ATL3] |  |  | 3.31 ± 0.26 | 3.57 ± 0.21 |
| HGAHINLQSLKFQGGHGPAATLLR [RIPK4] |  |  | 2.65 ± 0.36 | 3 ± 0.047 |
| PLDVVKVRLQSQRPSMASELMPSS [SLC25A39] |  |  | 3.65 ± 0.34 | 3.59 ± 0.36 |
| LKERFAFLFNSELLSDVRFVLGKG [BTBD1] |  |  | 2.53 ± 0.23 | 2.64 ± 0.41 |
| PDDLLTTLDDTCDLFAPLVQETNK [ATF4] |  |  | 5.12 ± 0.23 | 5.14 ± 0.22 |
| VELHYEEGSPRNLGTPTSSTPRPS [C2CD2L] |  |  | 4.63 ± 0.48 | 4.48 ± 0.32 |
| WCDGCKNHIGMGVRYNAEKKKVGN [YJU2B] |  |  | 3.67 ± 0.34 | 3.65 ± 0.32 |
| QPVKTAGEITQHNVTELLRDVAAW [DNAAF3] |  |  | 3.73 ± 0.32 | 3.75 ± 0.27 |
